Assay [1] has as its target T1, Mouse UHRF1 (1-782) F46A point mutant (mouse, UniProt Q8VDF2 1-782, F46A).
T1 sequence: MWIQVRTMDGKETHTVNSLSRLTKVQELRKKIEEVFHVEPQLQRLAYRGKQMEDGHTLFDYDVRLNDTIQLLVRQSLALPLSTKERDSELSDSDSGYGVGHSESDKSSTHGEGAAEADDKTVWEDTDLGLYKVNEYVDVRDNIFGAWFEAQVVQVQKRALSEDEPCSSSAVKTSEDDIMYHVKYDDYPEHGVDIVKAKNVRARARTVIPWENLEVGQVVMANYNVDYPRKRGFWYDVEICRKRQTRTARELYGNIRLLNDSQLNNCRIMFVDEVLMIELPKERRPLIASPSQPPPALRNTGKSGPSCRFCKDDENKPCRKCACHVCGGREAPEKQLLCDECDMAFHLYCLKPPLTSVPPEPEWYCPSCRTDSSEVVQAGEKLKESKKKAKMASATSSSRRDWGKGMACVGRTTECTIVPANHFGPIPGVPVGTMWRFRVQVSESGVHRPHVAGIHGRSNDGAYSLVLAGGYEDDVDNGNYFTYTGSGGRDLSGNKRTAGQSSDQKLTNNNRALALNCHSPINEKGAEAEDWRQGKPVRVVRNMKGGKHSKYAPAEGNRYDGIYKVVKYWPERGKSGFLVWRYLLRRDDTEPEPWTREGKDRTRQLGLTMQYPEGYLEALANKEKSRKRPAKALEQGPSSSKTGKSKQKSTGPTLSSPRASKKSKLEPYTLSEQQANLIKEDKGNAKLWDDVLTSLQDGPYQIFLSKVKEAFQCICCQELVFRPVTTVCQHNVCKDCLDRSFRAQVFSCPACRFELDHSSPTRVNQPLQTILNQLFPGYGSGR
Put plainly: pull-down.

For assay [2], the target named is T2, Mouse UHRF1 (1-782), wild-type with the native N terminus (mouse, UniProt Q8VDF2 1-782).
T2 sequence: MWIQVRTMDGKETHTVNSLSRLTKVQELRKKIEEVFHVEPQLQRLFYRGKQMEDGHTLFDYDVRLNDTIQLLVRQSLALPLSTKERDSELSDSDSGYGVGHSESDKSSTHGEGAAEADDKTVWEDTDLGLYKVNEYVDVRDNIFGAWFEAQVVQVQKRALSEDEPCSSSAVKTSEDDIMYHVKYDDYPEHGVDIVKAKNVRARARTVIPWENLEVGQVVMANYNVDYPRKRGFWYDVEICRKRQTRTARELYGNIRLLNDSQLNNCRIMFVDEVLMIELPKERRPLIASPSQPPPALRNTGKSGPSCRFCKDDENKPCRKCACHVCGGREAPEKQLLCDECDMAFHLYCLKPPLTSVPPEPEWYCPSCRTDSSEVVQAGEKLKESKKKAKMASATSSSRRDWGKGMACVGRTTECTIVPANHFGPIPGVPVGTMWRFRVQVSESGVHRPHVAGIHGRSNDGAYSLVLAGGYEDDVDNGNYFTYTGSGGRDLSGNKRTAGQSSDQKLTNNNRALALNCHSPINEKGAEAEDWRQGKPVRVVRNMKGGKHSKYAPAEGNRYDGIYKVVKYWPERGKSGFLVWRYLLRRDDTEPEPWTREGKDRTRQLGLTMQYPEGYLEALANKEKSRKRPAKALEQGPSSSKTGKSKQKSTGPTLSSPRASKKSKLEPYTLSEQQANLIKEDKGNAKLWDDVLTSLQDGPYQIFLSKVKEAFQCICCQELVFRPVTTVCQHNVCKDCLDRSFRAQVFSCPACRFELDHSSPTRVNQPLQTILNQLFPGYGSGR
Put plainly: pull-down.

Assay [3] has as its target T3, Mouse UHRF1^ΔMW (3-782) (mouse, UniProt Q8VDF2 3-782).
T3 sequence: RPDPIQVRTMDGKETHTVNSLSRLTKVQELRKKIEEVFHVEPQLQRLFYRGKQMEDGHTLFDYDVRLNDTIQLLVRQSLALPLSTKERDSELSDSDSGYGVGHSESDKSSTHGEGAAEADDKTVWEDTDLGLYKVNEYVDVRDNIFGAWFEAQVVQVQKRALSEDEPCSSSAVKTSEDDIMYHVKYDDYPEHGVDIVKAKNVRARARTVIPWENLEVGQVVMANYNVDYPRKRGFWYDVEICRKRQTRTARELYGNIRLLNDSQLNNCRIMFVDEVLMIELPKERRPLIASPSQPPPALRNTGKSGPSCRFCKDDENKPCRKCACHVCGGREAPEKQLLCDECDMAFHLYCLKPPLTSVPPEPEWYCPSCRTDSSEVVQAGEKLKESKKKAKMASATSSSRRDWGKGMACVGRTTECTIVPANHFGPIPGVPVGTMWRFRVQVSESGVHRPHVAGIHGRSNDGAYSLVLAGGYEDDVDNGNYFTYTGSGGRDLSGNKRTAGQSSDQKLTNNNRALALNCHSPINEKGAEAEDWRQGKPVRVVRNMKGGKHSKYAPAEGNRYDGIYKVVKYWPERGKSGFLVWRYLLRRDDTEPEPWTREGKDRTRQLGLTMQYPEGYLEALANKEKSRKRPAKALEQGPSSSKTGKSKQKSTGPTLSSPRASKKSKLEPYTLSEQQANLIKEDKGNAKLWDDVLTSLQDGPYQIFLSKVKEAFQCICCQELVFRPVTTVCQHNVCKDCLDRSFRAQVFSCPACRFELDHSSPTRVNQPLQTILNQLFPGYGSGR
Put plainly: pull-down.

Assay [4] has as its target T3, Mouse UHRF1^ΔMW (3-782). Put plainly: cross-linking.
Assay [5] concerns the target T2, Mouse UHRF1 (1-782), wild-type with the …. Put plainly: cross-linking.

B1: GST-UbcH5a (human UBE2D1, wild-type) (enzyme)
chain: not shown
Regarding B1, the binding result in assay [1], in assay [2] and in assay [3] was “binds” in each case.

B2: GST-UbcH5a S22R (human UBE2D1 S22R) (enzyme)
chain: not shown
On to B2, for which the binding result in assay [2] is listed as “binds”.

B3: UbcH5a (human UBE2D1), without GST (enzyme)
chain: not shown
With B3, the binding result in assay [4] and in assay [5] was “binds” in each case.

The record behind these values is article PMC6242706 (Molecular Cell, 2018).
